From patent publication US5457182

Legend:
[1] = biological target: bovine brain calcineurin (bovine) (UniProt P48452)
[2] = biological target: N-succinyl-Ala-Leu-Pro-Phe-p-nitroanilide

IC50 for inhibition of CaN phosphatase activity (with FK-506, CaM, Ca2+, Mg2+) [1] [µM] | PPIase activity [2] [fold] | Substance
0.016 |  | FKBP12.6 (bovine, purified from calf brain cytosol)
0.0099 |  | recombinant human FKBP12 (from UniProt P62942)
 | 25 | cyclophilin (enzyme)
